Laboratory results reported in PMC4514675, “Novel Apo E-Derived ABCA1 Agonist Peptide (CS-6253) Promotes Reverse Cholesterol Transport and Induces Formation of preβ-1 HDL In Vitro” (PLoS ONE, 2015).
“And” between values parts separate entries of the source, which are not always exact repeats. Equal values may be shown once.

Legend:
[1] = biological target: T1, ABCA1 (Homo sapiens, UniProt O95477); assay: ABCA1-mediated phospholipid efflux from BHK-ABCA1 cells; assay type: cell-based; parameters: expressed in transfected cells; host or cells: BHK cells, stably transfected, induced with 10 nM mifepristone; settings: mean of triplicates ± SD, n = 3
T1 sequence (O95477 whole entry): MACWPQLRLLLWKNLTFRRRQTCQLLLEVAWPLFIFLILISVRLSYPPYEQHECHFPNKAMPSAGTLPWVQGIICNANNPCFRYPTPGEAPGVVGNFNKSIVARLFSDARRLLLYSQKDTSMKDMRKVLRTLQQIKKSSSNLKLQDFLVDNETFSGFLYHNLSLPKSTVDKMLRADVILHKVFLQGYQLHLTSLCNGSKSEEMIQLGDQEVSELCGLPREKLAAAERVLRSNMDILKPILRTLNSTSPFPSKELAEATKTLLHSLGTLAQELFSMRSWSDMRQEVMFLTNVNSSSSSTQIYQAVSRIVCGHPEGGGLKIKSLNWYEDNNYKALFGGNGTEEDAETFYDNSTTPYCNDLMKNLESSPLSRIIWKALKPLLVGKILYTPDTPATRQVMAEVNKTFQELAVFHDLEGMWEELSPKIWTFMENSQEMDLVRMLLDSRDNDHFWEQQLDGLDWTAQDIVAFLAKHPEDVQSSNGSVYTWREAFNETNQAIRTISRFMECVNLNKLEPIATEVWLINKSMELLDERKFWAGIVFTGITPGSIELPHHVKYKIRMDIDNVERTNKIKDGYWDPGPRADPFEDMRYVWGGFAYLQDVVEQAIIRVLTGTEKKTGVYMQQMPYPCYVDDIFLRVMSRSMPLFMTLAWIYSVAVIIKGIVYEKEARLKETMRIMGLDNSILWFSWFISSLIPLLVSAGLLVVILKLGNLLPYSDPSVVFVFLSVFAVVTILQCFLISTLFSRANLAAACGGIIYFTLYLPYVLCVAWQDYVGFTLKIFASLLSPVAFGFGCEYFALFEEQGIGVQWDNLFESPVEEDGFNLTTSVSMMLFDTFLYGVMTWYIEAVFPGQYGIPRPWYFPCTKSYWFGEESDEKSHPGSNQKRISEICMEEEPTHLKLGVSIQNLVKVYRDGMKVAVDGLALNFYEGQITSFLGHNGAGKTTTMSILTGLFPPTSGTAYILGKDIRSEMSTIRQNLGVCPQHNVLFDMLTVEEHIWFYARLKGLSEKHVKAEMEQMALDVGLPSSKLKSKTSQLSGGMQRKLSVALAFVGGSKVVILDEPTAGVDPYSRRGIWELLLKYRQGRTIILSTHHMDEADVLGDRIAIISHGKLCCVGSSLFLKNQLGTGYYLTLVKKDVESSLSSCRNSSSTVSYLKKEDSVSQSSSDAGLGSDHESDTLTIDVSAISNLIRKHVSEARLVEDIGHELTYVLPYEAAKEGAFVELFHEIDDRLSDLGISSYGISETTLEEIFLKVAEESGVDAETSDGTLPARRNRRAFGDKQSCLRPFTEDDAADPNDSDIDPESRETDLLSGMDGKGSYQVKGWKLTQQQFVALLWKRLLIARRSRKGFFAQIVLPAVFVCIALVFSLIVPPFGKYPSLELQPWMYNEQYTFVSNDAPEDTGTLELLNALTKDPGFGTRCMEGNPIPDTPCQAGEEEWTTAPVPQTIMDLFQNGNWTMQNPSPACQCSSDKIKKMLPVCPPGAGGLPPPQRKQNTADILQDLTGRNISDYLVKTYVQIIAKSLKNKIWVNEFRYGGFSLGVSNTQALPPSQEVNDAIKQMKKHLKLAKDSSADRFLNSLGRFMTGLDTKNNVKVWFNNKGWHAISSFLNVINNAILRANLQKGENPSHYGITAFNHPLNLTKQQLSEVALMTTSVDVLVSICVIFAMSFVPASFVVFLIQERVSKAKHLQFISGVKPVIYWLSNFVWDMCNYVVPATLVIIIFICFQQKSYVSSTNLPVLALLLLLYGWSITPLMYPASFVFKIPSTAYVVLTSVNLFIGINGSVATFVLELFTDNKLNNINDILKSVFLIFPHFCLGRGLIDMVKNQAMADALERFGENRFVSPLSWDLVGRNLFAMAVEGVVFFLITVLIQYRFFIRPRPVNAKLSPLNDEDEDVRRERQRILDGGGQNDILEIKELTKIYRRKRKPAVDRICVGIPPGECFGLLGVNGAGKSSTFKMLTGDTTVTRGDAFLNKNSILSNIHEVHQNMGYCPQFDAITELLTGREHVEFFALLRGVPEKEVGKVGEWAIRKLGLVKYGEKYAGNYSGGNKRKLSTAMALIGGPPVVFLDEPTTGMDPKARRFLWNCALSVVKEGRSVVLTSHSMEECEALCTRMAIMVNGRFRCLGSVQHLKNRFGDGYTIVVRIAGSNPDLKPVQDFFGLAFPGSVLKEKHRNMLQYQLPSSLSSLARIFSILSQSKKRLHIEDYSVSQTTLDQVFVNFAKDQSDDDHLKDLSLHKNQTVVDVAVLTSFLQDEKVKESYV
Method: Supplementary file pone.0131997.s003.tif: S2 Fig Phospholipid efflux from BHK cells expressing ABCA1 to increasing concentrations of lipid free CS-6253 and apo A-I. Baby hamster kidney (BHK) cells were labeled with ^3[H]-choline. ABCA1 expression was induced by treating BHK cells with 10 nM mifepristone. Cells were then changed into fresh DMEM medium [no apolipoprotein A-I (apoA-I)] and incubated with apoA-I or CS-6253 (0.96 uM). Medium was collected after 2 h. […] Results represent the mean of triplicates ± SD, n = 3. (TIF) Click here for additional data file.
Cells were seeded (50×10^3 cells) in 24 well plates containing DMEM plus 10% FBS with 3 μCi/ml ^3H-choline chloride (Perkin Elmer, Norwalk, Connecticut), for 72 hours as previously reported with minor changes). Cells were then put into induction medium for 18–20 h (10 nM mifepristone). This was followed by incubation with increased molar doses of apo A-I and CS-6253 for 2 h at 37°C. Efflux medium was collected, and cellular lipids were extracted with hexane/isopropanol (3:2 v/v), while total phospholipids from the medium were extracted in chloroform /methanol (2:1 v/v). Efflux was determined as percent of total ^3[H] Phospholipids in the medium. All results were conformed at least twice. (S2 Fig.)

[2] = biological target: T1, ABCA1; assay: ABCA1-mediated cholesterol efflux from BHK-ABCA1 cells after pre-incubation of acceptor in human plasma; assay type: cell-based; parameters: expressed in transfected cells; host or cells: BHK cells, stably transfected, induced with 10 nM mifepristone (gift of J. F. Oram)
Method: We investigated cholesterol efflux from BHK cells after adding lipid free CS-6253 to media cell culture or to human EDTA-plasma which had been stored at -80°C. BHK overexpressing human ABCA1 were labeled with 2 μCi/ml ^3H-free cholesterol (Perkin Elmer, Norwalk, Connecticut) for 24 h. Afterward, BHK-ABCA1 were stimulated with 10 nmol/l mifepristone for 18–20 h (13). Cells were incubated with various doses of acceptor in media for 4 h at 37°C. Alternatively, plasma samples were first pre-incubated for 5 min at 37°C in plasma at mole ratios (10:1 or 1:1 relative to plasma apo A-I). To obtain the HDL fraction, apoB lipoproteins were precipitated from plasma by polyethylene glycol (PEG). Also, increased doses of lipid free CS-6253 and nHDL-CS-6253 were tested for cholesterol efflux after incubation with human plasma for optimum 1h at 37°C. ^3[H]-cholesterol loaded BHK cells expressing ABCA1 were incubated with 2.8% apoB depleted plasma samples [19] for 4 h for the efflux assays. Lipid free apo A-I and nHDL-apo A-I were used as control, nHDL-CS-6253 and nHDL-apo A-I were generated after incubation with BHK cells expressing ABCA1. Direct comparisons with peptide ATI-5261 are provided using identical protocols (12).
Fig 7 Dose dependent effects of pre-incubation of plasma with lipid free CS-6253, or nHDL-CS-6253 on ABCA1 cholesterol efflux. A. Increased doses of lipid free CS-6253 or apo A-I were added to normolipidemic plasma and incubated for 1h at 37°C. A volume of 2.8% of HDL fractions isolated by PEG was used for the measurements of cholesterol efflux from BHK cells expressing ABCA1 and mock cells. […] B. nHDL-CS-6253 and nHDL-apo A-I were generated as indicated above. nHDL particles were incubated in plasma for 1h at 37°C, and specific HDL fractions isolated by PEG were subjected to cholesterol efflux in ^3[H]-radiolabelled BHK cells. […] C. Mobilization of cholesterol efflux of increasing concentrations of peptide: plasma apo A-I molar ratios: (1:0) (closed circles), (1:10) (upright closed triangles), and (1:1) (closed squares). (C inset). The double reciprocal-plot was used to calculate the apparent appKm of the efflux activity in peptide: plasma with indicated ratios. Kinetics values are as follows, molar ratio of plasma apo A-I: CS-6253 (1:0); appKm (28±0.07 μM). Molar ratio of plasma apo A-I: CS-6253 (1:1); appKm (4.17±0.47 μM). Molar ratio of plasma apo A-I: CS-6253 (1:10); appKm (0.71±0.46 μM). D. Lipid free CS-6253 was incubated with normolipidemic plasma, using peptide: apo A-I mole ratio of (1:1) for 5 min at 37°C versus plasma alone. Isolated HDL fractions by PEG were separated by 2D-PAGGE and HDL subpopulations were detected by apo A-I Western blot. Molecular size markers are shown. In all experiments, efflux of ^3[H]cholesterol is shown as means ± SD of triplicate experiments.

## apolipoprotein A-I [apo A-I]
[1]; 2 h
  Km: 0.14 ± 0.02 µM
  Km, phospholipid efflux: 3.65 ± 0.49 µg/mL
[1]
  Vmax, phospholipid efflux: 0.77±0.02 % efflux/2h
[2]; acceptor in human plasma 1 h 37°C, 2.8% HDL fraction, 4 h, BHK-ABCA1, Fig 7A/7B, read-out: Km, cholesterol efflux, plasma (Fig 7)
  Km: 0.03 ± 0.008 µM
[2]; acceptor in human plasma 1 h 37°C, 2.8% HDL fraction, BHK-ABCA1, Fig 7A/7B
  Vmax, cholesterol efflux, plasma (Fig 7): 9.26±0.29 % efflux/4h
[2]; efflux condition plasma, 4 h, BHK-ABCA1, Table 1, mean ± SD
  Vmax, cholesterol efflux, plasma (Table 1): 8.81±0.33 % efflux/4h
[2]; efflux condition plasma, 4 h, BHK-ABCA1, Table 1, mean ± SD, read-out: Km, cholesterol efflux, plasma (Table 1)
  Km: 0.02 ± 0.0091 µM
[2]; no peptide, 5 min, 37°C, efflux 4 h, Lineweaver-Burk, listed as plasma apo A-I
  appKm, HDL specific cholesterol efflux, plasma apo A-I alone: 28 ± 0.072 µM and 28 ± 0.07 µM
